± gives the standard deviation of the averaged measurements.
Assay: total protein half-life in vivo (active degradation + dilution); higher = more stable protein
[1] = E. coli NCM3722 delta-clpP delta-lon delta-hslV, growth: N-lim chemostat, doubling time 6 h
[2] = E. coli NCM3722 delta-clpP, growth: N-lim chemostat, doubling time 6 h
[3] = E. coli NCM3722 delta-hslV, growth: N-lim chemostat, doubling time 6 h
[4] = E. coli NCM3722 delta-lon, growth: N-lim chemostat, doubling time 6 h
[5] = E. coli NCM3722 delta-smpB, growth: N-lim chemostat, doubling time 6 h
[6] = wild type E. coli NCM3722, growth: C-lim chemostat, doubling time 3 h
[7] = wild type E. coli NCM3722, growth: C-lim chemostat, doubling time 6 h
[8] = wild type E. coli NCM3722, growth: C-lim chemostat, doubling time 12 h
[9] = wild type E. coli NCM3722, growth: N-lim chemostat, doubling time 6 h
[10] = wild type E. coli NCM3722, growth: N-lim chemostat, doubling time 12 h
[11] = wild type E. coli NCM3722, growth: P-lim chemostat, doubling time 6 h
[12] = wild type E. coli NCM3722, growth: P-lim chemostat, doubling time 12 h

Sequence	total protein half-life in vivo [1]	total protein half-life in vivo [2]	total protein half-life in vivo [3]	total protein half-life in vivo [4]	total protein half-life in vivo [5]	total protein half-life in vivo [6]	total protein half-life in vivo [7]	total protein half-life in vivo [8]	total protein half-life in vivo [9]	total protein half-life in vivo [10]	total protein half-life in vivo [11]	total protein half-life in vivo [12]
MQIVMFDRQSIFIHGMKISLQQRIPGVSIQGASQADELWQKLESYPEALVMLDGDQDGEFCYWLLQKTVVQFPEVKVLITATDCNKRWLQEVIHFNVLAIVPRDSTVETFALAVNSAAMGMMFLPGDWRTTPEKDIKDLKSLSARQREILTMLAAGESNKEIGRALNISTGTVKAHLESLYRRLEVKNRTQAAMMLNISS	4.46 h	–	–	–	–	–	–	–	–	–	–	–
MASSGTTSTRKRFTGAEFIVHFLEQQGIKIVTGIPGGSILPVYDALSQSTQIRHILARHEQGAGFIAQGMARTDGKPAVCMACSGPGATNLVTAIADARLDSIPLICITGQVPASMIGTDAFQEVDTYGISIPITKHNYLVRHIEELPQVMSDAFRIAQSGRPGPVWIDIPKDVQTAVFEIETQPAMAEKAAAPAFSEESIRDAAAMINAAKRPVLYLGGGVINAPARVRELAEKAQLPTTMTLMALGMLPKAHPLSLGMLGMHGVRSTNYILQEADLLIVLGARFDDRAIGKTEQFCPNAKIIHVDIDRAELGKIKQPHVAIQADVDDVLAQLIPLVEAQPRAEWHQLVADLQREFPCPIPKACDPLSHYGLINAVAACVDDNAIITTDVGQHQMWTAQAYPLNRPRQWLTSGGLGTMGFGLPAAIGAALANPDRKVLCFSGDGSLMMNIQEMATASENQLDVKIILMNNEALGLVHQQQSLFYEQGVFAATYPGKINFMQIAAGFGLETCDLNNEADPQASLQEIINRPGPALIHVRIDAEEKVYPMVPPGAANTEMVGE	2.91 ± 0.088 h	1.25 ± 0.025 h	1.28 ± 0.21 h	1.6 ± 0.46 h	1.43 ± 0.086 h	2.4 ± 0.39 h	2.86 ± 0.38 h	4.64 ± 1.5 h	1.4 ± 0.11 h	2.49 h	4.5 h	8.65 ± 1.8 h
MTTHLVWFRQDLRLHDNLALAAACRNSSARVLALYIATPRQWATHNMSPRQAELINAQLNGLQIALAEKGIPLLFREVDDFVASVEIVKQVCAENSVTHLFYNYQYEVNERARDVEVERALRNVVCEGFDDSVILPPGAVMTGNHEMYKVFTPFKNAWLKRLREGMPECVAAPKVRSSGSIEPSPSITLNYPRQSFDTAHFPVEEKAAIAQLRQFCQNGAGEYEQQRDFPAVEGTSRLSASLATGGLSPRQCLHRLLAEQPQALDGGAGSVWLNELIWREFYRHLITYHPSLCKHRPFIAWTDRVQWQSNPAHLQAWQEGKTGYPIVDAAMRQLNSTGWMHNRLRMITASFLVKDLLIDWREGERYFMSQLIDGDLAANNGGWQWAASTGTDAAPYFRIFNPTTQGEKFDHEGEFIRQWLPELRDVPGKVVHEPWKWAQKAGVTLDYPQPIVEHKEARVQTLAAYEAARKGK	5.62 ± 0.31 h	6.1 ± 1 h	6.2 ± 0.4 h	6.08 ± 0.8 h	5.35 ± 0.34 h	3.23 ± 0.22 h	6.25 ± 0.49 h	11.533 ± 0.011 h	5.49 ± 0.16 h	11.1 ± 0.21 h	6.17 ± 0.76 h	11.62 ± 0.014 h
MQENYKILVVDDDMRLRALLERYLTEQGFQVRSVANAEQMDRLLTRESFHLMVLDLMLPGEDGLSICRRLRSQSNPMPIIMVTAKGEEVDRIVGLEIGADDYIPKPFNPRELLARIRAVLRRQANELPGAPSQEEAVIAFGKFKLNLGTREMFREDEPMPLTSGEFAVLKALVSHPREPLSRDKLMNLARGREYSAMERSIDVQISRLRRMVEEDPAHPRYIQTVWGLGYVFVPDGSKA [P0AA16]	5.29 ± 0.46 h	6.03 ± 1.6 h	5.25 ± 0.31 h	6.35 ± 0.91 h	4.73 ± 0.46 h	3.32 ± 0.41 h	5.849 ± 0.017 h	10.3 ± 0.2 h	4.67 ± 0.22 h	8.55 ± 0.08 h	5.66 ± 0.17 h	11 ± 0.14 h
MLCVKNVSLRLPESRLLTNVNFTVDKGDIVTLMGPSGCGKSTLFSWMIGALAEQFSCTGELWLNEQRIDILPTAQRQIGILFQDALLFDQFSVGQNLLLALPATLKGNARRNAVNDALERSGLEGAFHQDPATLSGGQRARVALLRALLAQPKALLLDEPFSRLDVALRDNFRQWVFSEVRALAIPVVQVTHDLQDVPADSSVLDMAQWSENYNKLR	6.284 ± 0.01 h	5.73 ± 0.066 h	6.47 ± 0.07 h	6.28 ± 0.58 h	5.27 ± 0.077 h	3.11 ± 0.35 h	6.13 ± 0.53 h	10.8 ± 2.7 h	6.45 ± 0.98 h	12.7 ± 0.24 h	5.99 ± 0.28 h	13.7 ± 0.89 h
MLKKFRGMFSNDLSIDLGTANTLIYVKGQGIVLNEPSVVAIRQDRAGSPKSVAAVGHDAKQMLGRTPGNIAAIRPMKDGVIADFFVTEKMLQHFIKQVHSNSFMRPSPRVLVCVPVGATQVERRAIRESAQGAGAREVFLIEEPMAAAIGAGLPVSEATGSMVVDIGGGTTEVAVISLNGVVYSSSVRIGGDRFDEAIINYVRRNYGSLIGEATAERIKHEIGSAYPGDEVREIEVRGRNLAEGVPRGFTLNSNEILEALQEPLTGIVSAVMVALEQCPPELASDISERGMVLTGGGALLRNLDRLLMEETGIPVVVAEDPLTCVARGGGKALEMIDMHGGDLFSEE [P0A9X4]	–	–	6.55 ± 0.53 h	6.29 ± 0.99 h	5.69 ± 0.23 h	3.039 ± 0.01 h	6.72 ± 0.37 h	12.1 ± 0.77 h	6.13 ± 0.39 h	12.1 ± 0.8 h	5.94 ± 0.36 h	12.4 ± 0.42 h

From the supplement of paper PMC11246515
